According to paper PMC4282956 (Journal of immunology (Baltimore, Md. : 1950), 2014):

Biological target: HLA-B*57:01.L82R/LF9 (human | )
Test: SPR

B1: Soluble KIR3DL1*001 (receptor)
chain: HMGGQDKPFLSAWPSAVVPRGGHVTLRCHYRHRFNNFMLYKEDRIHIPIFHGRIFQESFNMSPVTTAHAGNYTCRGSHPHSPTGWSAPSNPVVIMVTGNHRKPSLLAHPGPLVKSGERVILQCWSDIMFEHFFLHKEGISKDPSRLVGQIHDGVSKANFSIGPMMLALAGTYRCYGSVTHTPYQLSAPSDPLDIVVTGPYEKPSLSAQPGPKVQAGESVTLSCSSRSSYDMYHLSREGGAHERRLPAVRKVNRTFQADFPLGPATHGGTYRCFGSFRHSPYEWSDPSDPLLVSVTGNPS
For B1, the Kd was 35.5 ± 8.34 µM.
